US20020177203A1, “Alpha2 subunit of prolyl 4-hydroxylase” (priority 1996, published 2002)

Experiments:
[1] = substrate: O=C1O[C@H]([C@@H](O)CO)C(O)=C1O; assay: Prolyl 4-hydroxylase activity assay (decarboxylation of 2-oxo[1-14C]glutarate), type 1 enzyme; assay type: biochemical, human; settings: other: α12β2, recombinant enzyme from insect cells, 0.1% Triton X-100 extract; pH 7.8
[2] = substrate: O=C1O[C@H]([C@@H](O)CO)C(O)=C1O; assay: Prolyl 4-hydroxylase activity assay (decarboxylation of 2-oxo[1-14C]glutarate), type 2 enzyme; assay type: biochemical; settings: other: α22β2 (mouse α2, human PDI/β), recombinant enzyme from insect cells; pH 7.8

B1: human type 1 prolyl 4-hydroxylase tetramer (α12β2) (Homo sapiens) (protein)
chain: HPGFFTSIGQMTDLIHTEKDLVTSLKDYIKAEEDKLEQIKKWAEKLDRLTSTATKDPEGFVGHPVNAFKLMKRLNTEWSELENLVLKDMSDGFISNLTIQRQYFPNDEDQVGAAKALLRLQDTYNLDTDTISKGNLPGVKHKSFLTAEDCFELGKVAYTEADYYHTELWMEQALRQLDEGEISTIDKVSVLDYLSYAVYQQGDLDKALLLTKKLLELDPEHQRANGNLKYFEYIMAKEKDVNKSASDDQSDQKTTPKKKGVAVDYLPERQKYEMLCRGEGIKMTPRRQKKLFCRYHDGNRNPKFILAPAKQEDEWDKPRIIRFHDIISDAEIEIVKDLAKPRLRRATISNPITGDLETVHYRISKSAWLSGYENPVVSRINMRIQDLTGLDVSTAEELQVANYGVGGQYEPHFDFARKDEPDAFKELGTGNRIATWLFYMSDVSAGGATVFPEVGASVWPKKGTAVFWYNLFASGEGDYSTRHAACPVLVGNKWVSNKWLHERGQEFRRPCTLSELE
notes: made in house; host or cells: Spodoptera frugiperda Sf9 insect cells (baculovirus co-infection); 0.1% Triton X-100 extract
Km [1]: 330 µM

B2: mouse/human type 2 prolyl 4-hydroxylase tetramer (α22β2) (Mus musculus) (protein)
chain: WVQAEFFTSIGHMTDLIYAEKDLVQSLKEYILVEEAKLAKIKSWASKMEALTSRSAADPEGYLAHPVNAYKLVKRLNTDWPALGDLVLQDASAGFVANLSVQRQFFPTDEDESGAARALMRLQDTYKLDPDTISRGELPGTKYQAMLSVDDCFGLGRSAYNEGDYYHTVLWMEQVLKQLDAGEEATVTKSLVLDYLSYAVFQLGDLHRAVELTRRLLSLDPSHERAGGNLRYFERLLEEERGKSLSNQTDAGLATQENLYERPTDYLPERDVYESLCRGEGVKLTPRRQKKLFCRYHHGNRVPQLLIAPFKEEDEWDSPHIVRYYDVMSDEEIERIKEIAKPKLARATVRDPKTGVLTVASYRVSKSSWLEEDDDPVVARVNRRMQHITGLTVKTAELLQVANYGMGGQYEPHFDFSRSDDEDAFKRLGTGNRVATFLNYMSDVEAGGATVFPDLGAAIWPKKGTAVFWYNLLRSGEGDYRTRHAACPVLVGCKWVSNKWFHERGQEFLRPCGTTEVD
notes: the cDNA clones, considered in combination, cover the whole coding region of the mouse α2 subunit; made in house; host or cells: Spodoptera frugiperda Sf9 insect cells (baculovirus pVL1392 construct, co-infection with PDI/β virus); 0.1% Triton X-100 extract
Km [2]: 340 µM
